Results as given in patent US20150344570A1 (published 2015).

T1: FcγRIIb extracellular domain with C-terminal His tag (human, UniProt P31994 43-217)
T1 construct: extracellular domain; soluble analyte in Biacore; also called FcgRIIb; not shown: His tag at the C terminus
T1 sequence (looked up): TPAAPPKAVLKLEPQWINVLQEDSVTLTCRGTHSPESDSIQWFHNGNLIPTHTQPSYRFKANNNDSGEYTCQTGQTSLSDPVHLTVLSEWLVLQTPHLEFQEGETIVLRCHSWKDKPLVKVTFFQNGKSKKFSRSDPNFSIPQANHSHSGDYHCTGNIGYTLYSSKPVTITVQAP


What was measured:
[1] = biological target: T1, FcγRIIb extracellular domain with …; assay: SPR, binding relative to GpH7-A5/GpH7-B3/GpL16-k0 = 100
[2] = biological target: T2, FcγRIa extracellular domain with C-terminal His tag (human, UniProt P12314 16-292); assay: as above
T2 construct: extracellular domain; soluble analyte in Biacore; also called FcgRI; not shown: His tag at the C terminus
T2 sequence (P12314 16-292): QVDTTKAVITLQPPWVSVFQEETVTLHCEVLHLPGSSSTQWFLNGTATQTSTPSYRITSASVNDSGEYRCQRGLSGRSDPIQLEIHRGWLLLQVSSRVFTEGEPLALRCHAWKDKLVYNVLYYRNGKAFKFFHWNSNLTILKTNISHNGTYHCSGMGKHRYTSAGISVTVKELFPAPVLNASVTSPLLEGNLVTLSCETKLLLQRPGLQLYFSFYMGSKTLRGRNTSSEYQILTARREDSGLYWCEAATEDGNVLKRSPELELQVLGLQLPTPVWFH

Binder	He/Con_2b [1]	He/Con_1a [2]
GpH7-A5/GpH7-B3 variant P329_02A/GpL16-k0 (antibody, human IgG1, kappa, change in the GpH7-B3 H chain only; also called He Ab) heavy 1: not shown heavy 2: not shown light: DIVMTQSPLSLPVTPGEPASISCQASESLVHSNRNTYLHWYLQKPGQSPQLLIYKVSNRFSGVPDRFSGSGSGTDFTLKISRVEAEDVGVYYCSQNTHVPPTFGQGTKVEIERTVAAPSVFIFPPSDEQLKSGTASVVCLLNNFYPREAKVQWKVDNALQSGNSQESVTEQDSKDSTYSLSSTLTLSKADYEKHKVYACEVTHQGLSSPVTKSFNRGEC	40.5 % of control	102 % of control
GpH7-A5/GpH7-B3 variant S324_08L/GpL16-k0 (antibody, human IgG1, kappa, change in the GpH7-B3 H chain only; also called He Ab) heavy 1: not shown heavy 2: not shown light: DIVMTQSPLSLPVTPGEPASISCQASESLVHSNRNTYLHWYLQKPGQSPQLLIYKVSNRFSGVPDRFSGSGSGTDFTLKISRVEAEDVGVYYCSQNTHVPPTFGQGTKVEIERTVAAPSVFIFPPSDEQLKSGTASVVCLLNNFYPREAKVQWKVDNALQSGNSQESVTEQDSKDSTYSLSSTLTLSKADYEKHKVYACEVTHQGLSSPVTKSFNRGEC	89.6 % of control	103 % of control
GpH7-A5/GpH7-B3 variant S324_09D/GpL16-k0 (antibody, human IgG1, kappa, change in the GpH7-B3 H chain only; also called He Ab) heavy 1: not shown heavy 2: not shown light: DIVMTQSPLSLPVTPGEPASISCQASESLVHSNRNTYLHWYLQKPGQSPQLLIYKVSNRFSGVPDRFSGSGSGTDFTLKISRVEAEDVGVYYCSQNTHVPPTFGQGTKVEIERTVAAPSVFIFPPSDEQLKSGTASVVCLLNNFYPREAKVQWKVDNALQSGNSQESVTEQDSKDSTYSLSSTLTLSKADYEKHKVYACEVTHQGLSSPVTKSFNRGEC	85.8 % of control	104 % of control
GpH7-A5/GpH7-B3 variant S324_10E/GpL16-k0 (antibody, human IgG1, kappa, change in the GpH7-B3 H chain only; also called He Ab) heavy 1: not shown heavy 2: not shown light: DIVMTQSPLSLPVTPGEPASISCQASESLVHSNRNTYLHWYLQKPGQSPQLLIYKVSNRFSGVPDRFSGSGSGTDFTLKISRVEAEDVGVYYCSQNTHVPPTFGQGTKVEIERTVAAPSVFIFPPSDEQLKSGTASVVCLLNNFYPREAKVQWKVDNALQSGNSQESVTEQDSKDSTYSLSSTLTLSKADYEKHKVYACEVTHQGLSSPVTKSFNRGEC	77.4 % of control	105 % of control
GpH7-A5/GpH7-B3 variant S324_11K/GpL16-k0 (antibody, human IgG1, kappa, change in the GpH7-B3 H chain only; also called He Ab) heavy 1: not shown heavy 2: not shown light: DIVMTQSPLSLPVTPGEPASISCQASESLVHSNRNTYLHWYLQKPGQSPQLLIYKVSNRFSGVPDRFSGSGSGTDFTLKISRVEAEDVGVYYCSQNTHVPPTFGQGTKVEIERTVAAPSVFIFPPSDEQLKSGTASVVCLLNNFYPREAKVQWKVDNALQSGNSQESVTEQDSKDSTYSLSSTLTLSKADYEKHKVYACEVTHQGLSSPVTKSFNRGEC	68.6 % of control	102 % of control
GpH7-A5/GpH7-B3 variant S324_12R/GpL16-k0 (antibody, human IgG1, kappa, change in the GpH7-B3 H chain only; also called He Ab) heavy 1: not shown heavy 2: not shown light: DIVMTQSPLSLPVTPGEPASISCQASESLVHSNRNTYLHWYLQKPGQSPQLLIYKVSNRFSGVPDRFSGSGSGTDFTLKISRVEAEDVGVYYCSQNTHVPPTFGQGTKVEIERTVAAPSVFIFPPSDEQLKSGTASVVCLLNNFYPREAKVQWKVDNALQSGNSQESVTEQDSKDSTYSLSSTLTLSKADYEKHKVYACEVTHQGLSSPVTKSFNRGEC	63.1 % of control	102 % of control
GpH7-A5/GpH7-B3 variant S324_14T/GpL16-k0 (antibody, human IgG1, kappa, change in the GpH7-B3 H chain only; also called He Ab) heavy 1: not shown heavy 2: not shown light: DIVMTQSPLSLPVTPGEPASISCQASESLVHSNRNTYLHWYLQKPGQSPQLLIYKVSNRFSGVPDRFSGSGSGTDFTLKISRVEAEDVGVYYCSQNTHVPPTFGQGTKVEIERTVAAPSVFIFPPSDEQLKSGTASVVCLLNNFYPREAKVQWKVDNALQSGNSQESVTEQDSKDSTYSLSSTLTLSKADYEKHKVYACEVTHQGLSSPVTKSFNRGEC	88.4 % of control	121 % of control
GpH7-A5/GpH7-B3 variant S324_15Y/GpL16-k0 (antibody, human IgG1, kappa, change in the GpH7-B3 H chain only; also called He Ab) heavy 1: not shown heavy 2: not shown light: DIVMTQSPLSLPVTPGEPASISCQASESLVHSNRNTYLHWYLQKPGQSPQLLIYKVSNRFSGVPDRFSGSGSGTDFTLKISRVEAEDVGVYYCSQNTHVPPTFGQGTKVEIERTVAAPSVFIFPPSDEQLKSGTASVVCLLNNFYPREAKVQWKVDNALQSGNSQESVTEQDSKDSTYSLSSTLTLSKADYEKHKVYACEVTHQGLSSPVTKSFNRGEC	88.2 % of control	114 % of control
GpH7-A5/GpH7-B3 variant S324_16H/GpL16-k0 (antibody, human IgG1, kappa, change in the GpH7-B3 H chain only; also called He Ab) heavy 1: not shown heavy 2: not shown light: DIVMTQSPLSLPVTPGEPASISCQASESLVHSNRNTYLHWYLQKPGQSPQLLIYKVSNRFSGVPDRFSGSGSGTDFTLKISRVEAEDVGVYYCSQNTHVPPTFGQGTKVEIERTVAAPSVFIFPPSDEQLKSGTASVVCLLNNFYPREAKVQWKVDNALQSGNSQESVTEQDSKDSTYSLSSTLTLSKADYEKHKVYACEVTHQGLSSPVTKSFNRGEC	83.5 % of control	113 % of control
GpH7-A5/GpH7-B3 variant S324_18N/GpL16-k0 (antibody, human IgG1, kappa, change in the GpH7-B3 H chain only; also called He Ab) heavy 1: not shown heavy 2: not shown light: DIVMTQSPLSLPVTPGEPASISCQASESLVHSNRNTYLHWYLQKPGQSPQLLIYKVSNRFSGVPDRFSGSGSGTDFTLKISRVEAEDVGVYYCSQNTHVPPTFGQGTKVEIERTVAAPSVFIFPPSDEQLKSGTASVVCLLNNFYPREAKVQWKVDNALQSGNSQESVTEQDSKDSTYSLSSTLTLSKADYEKHKVYACEVTHQGLSSPVTKSFNRGEC	81.1 % of control	116 % of control
GpH7-A5/GpH7-B3 variant S324_19Q/GpL16-k0 (antibody, human IgG1, kappa, change in the GpH7-B3 H chain only; also called He Ab) heavy 1: not shown heavy 2: not shown light: DIVMTQSPLSLPVTPGEPASISCQASESLVHSNRNTYLHWYLQKPGQSPQLLIYKVSNRFSGVPDRFSGSGSGTDFTLKISRVEAEDVGVYYCSQNTHVPPTFGQGTKVEIERTVAAPSVFIFPPSDEQLKSGTASVVCLLNNFYPREAKVQWKVDNALQSGNSQESVTEQDSKDSTYSLSSTLTLSKADYEKHKVYACEVTHQGLSSPVTKSFNRGEC	66.8 % of control	112 % of control
GpH7-A5/GpH7-B3 variant S324_20W/GpL16-k0 (antibody, human IgG1, kappa, change in the GpH7-B3 H chain only; also called He Ab) heavy 1: not shown heavy 2: not shown light: DIVMTQSPLSLPVTPGEPASISCQASESLVHSNRNTYLHWYLQKPGQSPQLLIYKVSNRFSGVPDRFSGSGSGTDFTLKISRVEAEDVGVYYCSQNTHVPPTFGQGTKVEIERTVAAPSVFIFPPSDEQLKSGTASVVCLLNNFYPREAKVQWKVDNALQSGNSQESVTEQDSKDSTYSLSSTLTLSKADYEKHKVYACEVTHQGLSSPVTKSFNRGEC	87.5 % of control	114 % of control
GpH7-A5/GpH7-B3 variant T335_01G/GpL16-k0 (antibody, human IgG1, kappa, change in the GpH7-B3 H chain only; also called He Ab) heavy 1: not shown heavy 2: not shown light: DIVMTQSPLSLPVTPGEPASISCQASESLVHSNRNTYLHWYLQKPGQSPQLLIYKVSNRFSGVPDRFSGSGSGTDFTLKISRVEAEDVGVYYCSQNTHVPPTFGQGTKVEIERTVAAPSVFIFPPSDEQLKSGTASVVCLLNNFYPREAKVQWKVDNALQSGNSQESVTEQDSKDSTYSLSSTLTLSKADYEKHKVYACEVTHQGLSSPVTKSFNRGEC	96.7 % of control	104 % of control
GpH7-A5/GpH7-B3 variant T335_02A/GpL16-k0 (antibody, human IgG1, kappa, change in the GpH7-B3 H chain only; also called He Ab) heavy 1: not shown heavy 2: not shown light: DIVMTQSPLSLPVTPGEPASISCQASESLVHSNRNTYLHWYLQKPGQSPQLLIYKVSNRFSGVPDRFSGSGSGTDFTLKISRVEAEDVGVYYCSQNTHVPPTFGQGTKVEIERTVAAPSVFIFPPSDEQLKSGTASVVCLLNNFYPREAKVQWKVDNALQSGNSQESVTEQDSKDSTYSLSSTLTLSKADYEKHKVYACEVTHQGLSSPVTKSFNRGEC	94 % of control	103 % of control
GpH7-A5/GpH7-B3 variant T335_05P/GpL16-k0 (antibody, human IgG1, kappa, change in the GpH7-B3 H chain only; also called He Ab) heavy 1: not shown heavy 2: not shown light: DIVMTQSPLSLPVTPGEPASISCQASESLVHSNRNTYLHWYLQKPGQSPQLLIYKVSNRFSGVPDRFSGSGSGTDFTLKISRVEAEDVGVYYCSQNTHVPPTFGQGTKVEIERTVAAPSVFIFPPSDEQLKSGTASVVCLLNNFYPREAKVQWKVDNALQSGNSQESVTEQDSKDSTYSLSSTLTLSKADYEKHKVYACEVTHQGLSSPVTKSFNRGEC	99.9 % of control	106 % of control
